From paper doi:10.1101/2024.11.23.624830 (bioRxiv, 2024)

Molecular target: the molecule itself
Assay: single-molecule photobleaching step analysis

B1: EmrE with a TC-tag (natural protein)
chain: MNPYIYLGGAILAEVIGTTLMKFSEGFTRLWPSVGTIICYCASFWLLAQTLAYIPTGIAYAIWSGVGIVLISLLSWGFFGQRLDLPAIIGMMLICAGVLIINLLSRSTPH
modifications: FlAsH dye bound covalently to the tetracysteine tag
stoichiometry N: 2
